From patent US20230277625A1 (SIMCHA IL 18, published 2023) come the findings set out here.

The target of test [1] is T1, Human IL-18Rα ectodomain (amino acids 19-329), biotinylated (human, UniProt Q13478 19-329, biotin on the AviTag (BirA ligase)).
T1 construct: range 19-329; Secreted from insect cells (gp67 signal peptide removed); also called hIL-18Rα; hIL18Rα
T1 sequence: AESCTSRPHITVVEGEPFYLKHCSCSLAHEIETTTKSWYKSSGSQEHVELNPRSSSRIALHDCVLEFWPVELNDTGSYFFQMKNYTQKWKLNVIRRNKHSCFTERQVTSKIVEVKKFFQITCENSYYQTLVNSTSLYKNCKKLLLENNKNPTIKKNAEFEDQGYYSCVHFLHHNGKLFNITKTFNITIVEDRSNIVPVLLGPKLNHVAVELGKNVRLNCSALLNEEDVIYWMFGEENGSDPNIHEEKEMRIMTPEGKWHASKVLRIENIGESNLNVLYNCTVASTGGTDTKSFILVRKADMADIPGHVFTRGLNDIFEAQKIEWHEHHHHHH
Kind of test: SPR (Biacore T100), receptor captured via biotin, IL-18 as analyte. On the procedure: (§1) Experiments were conducted using a Biacore T100 and carried out at 25° C. Biotinylated IL-18Rα or IL-18BP were immobilized onto a Biacore biotin capture chip (Series S CAP sensor chip, GE Healthcare) to yield an Rmax of ˜50 RU (IL-18Rα) or ˜10 RU (IL-18BP). Measurements were made with serial dilutions of the IL-18 variants in HEPES buffered Saline-P+buffer (10 mM HEPES pH 7.4, 150 mM NaCl, 0.005% surfactant P20). The surface was regenerated by three 60-sec injections of regeneration buffer (3/4 (v/v) 8M guanidine hydrochloride with 1/4 (v/v) 1M sodium hydroxide). Experiments were performed in multiple channels simultaneously for increased observations. All data were analyzed with the Biacore T100 evaluation software version 2.0 with a 1:1 Langmuir binding model.
(§2) To additionally characterize the receptor binding activities of the DR-IL-18 variants, the cytokines were expressed recombinantly and surface plasmon resonance for IL-18Rα and IL-18BP was performed (see FIG. 5B for representative traces).
For orientation: In SPR one partner is held on a chip, and binding of the other changes the refractive index at the surface.

The target of test [2] is T1, Human IL-18Rα ectodomain (amino acids …). Kind of test: SPR; average of 2 studies.
For test [3], the target named is T2, Human IL-18BP (amino acids 31-194), biotinylated (human, UniProt O95998 31-194, biotin on the AviTag (BirA ligase) where used biotinylated).
T2 construct: Soluble decoy receptor; also called hIL-18BP; recombinant IL-18BP
T2 sequence: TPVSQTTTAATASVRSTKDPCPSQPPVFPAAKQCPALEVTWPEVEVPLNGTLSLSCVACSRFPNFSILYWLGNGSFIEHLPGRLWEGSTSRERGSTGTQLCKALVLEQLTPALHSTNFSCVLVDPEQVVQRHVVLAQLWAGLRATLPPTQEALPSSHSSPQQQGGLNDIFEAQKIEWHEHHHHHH
Kind of test: SPR; average of 2 studies.

Test [4] deals with T2, Human IL-18BP (amino acids 31-194), …. Kind of test: on-yeast binding isotherm (flow cytometry). Background: Flow cytometry measures light scatter and fluorescence of single cells or particles in a stream.
Test [5] shares this target. Kind of test: SPR; KD for IL-18BP over KD for IL-18Rα. On the procedure:
as §1, §2

Test [6] has the same target. Kind of test: on-yeast binding isotherm (flow cytometry); members per FIG. 5A legend. The method, then: Individual colonies of IL-18 yeast were grown overnight at 30° C. in SDCAA liquid media and induced in SGCAA liquid media for 1 day at 20° C. IL-18 display levels on yeast were verified by flow cytometry using an anti-cMyc tag antibody (anti-myc-PE; Cell Signaling Technologies). Receptor staining with biotinylated IL-18Rα (with or without IL-18R β) or biotinylated IL-18BP was performed in PBS supplemented with 0.5% BSA and 2 mM EDTA (PBE) on ice. All analysis was performed on a Sony SA3800 flow cytometer.
as §2

Test [7] has the same target. Kind of test: on-yeast binding isotherms; KD ratio relative to WT IL-18.
Test [8] has the same target. Kind of test: SPR; KD(IL-18BP)/KD(IL-18Rα) normalized to WT IL-18.
For test [9] the target is unchanged. Kind of test: SPR; KD ratio relative to WT IL-18. The method, then: as §1, §2
The target is the same in test [10]. Kind of test: on-yeast binding isotherms; KD for IL-18BP over KD for IL-18Rα.
Test [11] has the same target. Kind of test: SPR (Biacore T100), IL-18BP captured via biotin, IL-18 as analyte. The method, then: as §1, §2

B1: SEQ ID NO: 36 (human DR-IL-18 variant hCS3) (ligand)
chain: RFGKLESKLSVIRNLNDQVLFIDQGNRPLFEDMTDSDCRDNAPRTIFIISTYKDSQPRGKAVTISVKCEKISTLSCENKIISFKEMNPPDNIKDTKSDIIFFQRDVPGHKHKMQFESSSYEGYFLACEKERDLFKLILKKEDELGDRSIMFTVQNED
notes: Engineered variant
For orientation: Kd means a measure of binding affinity in units of concentration. Low readings indicate a tighter complex, high ones a looser complex. A word on the EC50: it is the concentration needed to bring the measured effect to its halfway point. A low value points to an effect from little substance. For B1, the dissociation constant Kd in test [1] was 8.18 nM; in test [2] it was 9.1 nM; in test [3], 19.3 nM; in test [4], 11600 nM; in test [11], 18.6 nM. Also, the “KD ratio IL-18BP/IL-18Rα” value in [5] was found to be 2.27; in test [10], 103. This molecule registered a concentration for a half-maximal effect (EC50) in test [6] greater than 1000 nM. Moreover, the “Dissociation Constant Ratio normalized to WT IL-18” value in test [7] came to 348; in test [9], 3500. Moreover, the “IL-18 BP:Rα Dissociation Constant Ratio” value in test [8] amounted to 4350.
